# Target: T1, bovine serum albumin (bovine, UniProt P02769 25-607)
# T1 construct: Control coat in the ELISA; also called BSA
# Test: ELISA, wells coated with BSA alone, Wg conditioned medium
# Protocol: First, an ELISA was used to measure sFRP-1 binding to Wg. Wells were coated with purified full-length sFRP-1 and then blocked with an excess of BSA. Subsequently, conditioned medium from S2HSWg cells expressing soluble Wg was incubated in the wells overnight at room temperature. As a control, aliquots of the same medium were incubated in wells treated with BSA but not sFRP-1. […] In contrast, little Wg was detected in wells that had not been treated with sFRP-1 , and no signal was observed when medium lacking Wg was used in the assay (FIG. 3, A and B).
# sFRP-1/Wg ELISA Binding Assays—sFRP-1 diluted in 0.02% NaN₃/PBS was incubated in 96-well Falcon ELISA plates (300 ng/[…]) for 2 h at 37° C. After decanting, all wells were filled with 4% BSA/0.02% NaN₃/PBS and incubated for an additional 2 h at 37° C. Following five washes with TAPS (0.05% Tween-20 in 0.02% NaN₃/PBS), […] of Wg-containing or S2 control medium diluted in 1% BSA/TAPS were incubated overnight at room temperature. After five washes with TAPS, […] of Wg mAb diluted in 1% BSA/TAPS to a final concentration of […] was incubated in wells for 2 h at 37° C. Another five washes in TAPS were followed by a 2 h treatment at 37° C. with 1:400 dilution of conjugated alkaline phosphatase-goat anti-mouse IgG (Sigma). […] Absorbance at 405 nm was measured with an ELISA plate reader (Bio-Rad, Hercules, Calif.). […]
# T1 sequence (P02769 25-607 limits assumed): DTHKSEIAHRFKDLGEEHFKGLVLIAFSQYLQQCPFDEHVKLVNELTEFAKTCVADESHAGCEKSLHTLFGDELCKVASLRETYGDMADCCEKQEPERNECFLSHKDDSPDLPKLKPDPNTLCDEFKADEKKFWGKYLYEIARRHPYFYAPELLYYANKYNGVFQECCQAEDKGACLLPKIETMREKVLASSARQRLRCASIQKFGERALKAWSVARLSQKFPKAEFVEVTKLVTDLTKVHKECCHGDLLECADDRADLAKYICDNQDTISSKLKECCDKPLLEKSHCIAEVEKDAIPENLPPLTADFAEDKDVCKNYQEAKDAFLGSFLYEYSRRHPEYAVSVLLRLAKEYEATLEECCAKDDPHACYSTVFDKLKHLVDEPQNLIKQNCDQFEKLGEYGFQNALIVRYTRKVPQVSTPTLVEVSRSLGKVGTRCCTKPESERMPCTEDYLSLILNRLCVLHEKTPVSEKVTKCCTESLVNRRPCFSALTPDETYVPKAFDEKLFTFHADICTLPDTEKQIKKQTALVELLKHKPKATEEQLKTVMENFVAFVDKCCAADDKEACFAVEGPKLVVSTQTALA
binder,measurement,value
"Wingless (Wg), soluble, in conditioned medium of S2HSWg cells (ligand, Drosophila melanogaster, UniProt P09615 18-468, looked up, Used as unpurified conditioned medium; also called Wg medium; Wg-containing medium) GSSLSQVEGKQKSGRGRGSMWWGIAKVGEPNNITPIMYMDPAIHSTLRRKQRRLVRDNPGVLGALVKGANLAISECQHQFRNRRWNCSTRNFSRGKNLFGKIVDRGCRETSFIYAITSAAVTHSIARACSEGTIESCTCDYSHQSRSPQANHQAGSVAGVRDWEWGGCSDNIGFGFKFSREFVDTGERGRNLREKMNLHNNEAGRAHVQAEMRQECKCHGMSGSCTVKTCWMRLANFRVIGDNLKARFDGATRVQVTNSLRATNALAPVSPNAAGSNSVGSNGLIIPQSGLVYGEEEERMLNDHMPDILLENSHPISKIHHPNMPSPNSLPQAGQRGGRNGRRQGRKHNRYHFQLNPHNPEHKPPGSKDLVYLEPSPSFCEKNLRQGILGTHGRQCNETSLGVDGCGLMCCGRGYRRDEVVVVERCACTFHWCCEVKCKLCRTKKVIYTCL",binding result,no binding

# Source: patent US20030187223A1 (US Dept. of Health and Human Services, published 2003)
